According to patent US20260109747A1:

How the values were obtained:
Assay in all cases: cell-based or functional assay
[1] = target: cynomolgus monkey IL-2Rα/β/γ (cynomolgus monkey)
human IL-2Rβ/γ (human) = human IL-2Rβ/γ (human) (UniProt P14784)
mouse IL-2Rβ/γ (mouse) = target: T1, mouse IL-2Rβ/γ (mouse) (UniProt P16297)
T1 sequence (looked up) 1: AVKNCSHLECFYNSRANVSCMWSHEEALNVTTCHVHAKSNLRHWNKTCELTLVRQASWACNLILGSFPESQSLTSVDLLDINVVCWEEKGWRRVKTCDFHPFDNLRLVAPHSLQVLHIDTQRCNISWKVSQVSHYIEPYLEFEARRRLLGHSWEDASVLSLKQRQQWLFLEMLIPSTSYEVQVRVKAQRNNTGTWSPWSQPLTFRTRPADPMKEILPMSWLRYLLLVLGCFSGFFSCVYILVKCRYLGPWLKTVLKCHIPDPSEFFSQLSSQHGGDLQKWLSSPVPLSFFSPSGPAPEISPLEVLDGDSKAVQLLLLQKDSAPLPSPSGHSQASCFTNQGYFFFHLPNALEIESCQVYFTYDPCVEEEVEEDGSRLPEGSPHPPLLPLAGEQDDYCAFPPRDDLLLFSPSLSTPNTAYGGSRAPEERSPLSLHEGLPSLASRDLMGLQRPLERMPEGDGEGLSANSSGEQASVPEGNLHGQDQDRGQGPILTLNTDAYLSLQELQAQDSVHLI
T1 sequence (looked up) 2: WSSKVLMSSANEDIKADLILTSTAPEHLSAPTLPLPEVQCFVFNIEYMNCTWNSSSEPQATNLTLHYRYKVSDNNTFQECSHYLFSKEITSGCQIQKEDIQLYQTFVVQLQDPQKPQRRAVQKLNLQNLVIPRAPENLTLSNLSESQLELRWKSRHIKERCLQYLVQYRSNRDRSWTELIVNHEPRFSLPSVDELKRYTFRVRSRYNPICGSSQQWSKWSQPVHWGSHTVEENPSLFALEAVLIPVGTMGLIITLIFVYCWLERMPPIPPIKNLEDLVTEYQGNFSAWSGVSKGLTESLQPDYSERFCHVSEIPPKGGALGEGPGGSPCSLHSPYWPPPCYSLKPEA

human IL-2Rα/β/γ (human) = human IL-2Rα/β/γ (human) (UniProt P01589)
Sequence of human IL-2Rα/β/γ (human) (P01589 22-272, chain 1 of 3): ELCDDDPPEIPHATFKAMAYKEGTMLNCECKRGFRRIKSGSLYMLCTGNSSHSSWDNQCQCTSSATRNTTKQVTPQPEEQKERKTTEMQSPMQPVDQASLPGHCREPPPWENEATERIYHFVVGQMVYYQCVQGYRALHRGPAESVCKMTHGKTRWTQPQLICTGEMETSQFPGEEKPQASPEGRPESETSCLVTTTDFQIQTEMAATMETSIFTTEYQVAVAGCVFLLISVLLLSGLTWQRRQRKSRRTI
Sequence of human IL-2Rα/β/γ (human) (P14784 27-551, chain 2 of 3, further chain): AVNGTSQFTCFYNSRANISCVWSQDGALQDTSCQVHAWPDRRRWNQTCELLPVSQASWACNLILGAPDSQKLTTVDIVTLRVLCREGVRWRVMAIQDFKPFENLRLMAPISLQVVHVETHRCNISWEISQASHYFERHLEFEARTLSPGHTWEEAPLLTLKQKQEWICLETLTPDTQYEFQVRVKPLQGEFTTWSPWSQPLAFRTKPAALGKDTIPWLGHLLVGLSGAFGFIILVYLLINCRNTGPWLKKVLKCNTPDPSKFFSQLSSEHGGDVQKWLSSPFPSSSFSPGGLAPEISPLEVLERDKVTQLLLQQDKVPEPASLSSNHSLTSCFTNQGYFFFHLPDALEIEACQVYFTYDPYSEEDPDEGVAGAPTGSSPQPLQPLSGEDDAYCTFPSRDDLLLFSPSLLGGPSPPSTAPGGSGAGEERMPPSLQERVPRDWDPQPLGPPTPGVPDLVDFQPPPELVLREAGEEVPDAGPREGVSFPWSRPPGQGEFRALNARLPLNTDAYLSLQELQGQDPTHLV
Sequence of human IL-2Rα/β/γ (human) (P31785 23-369, chain 3 of 3, further chain): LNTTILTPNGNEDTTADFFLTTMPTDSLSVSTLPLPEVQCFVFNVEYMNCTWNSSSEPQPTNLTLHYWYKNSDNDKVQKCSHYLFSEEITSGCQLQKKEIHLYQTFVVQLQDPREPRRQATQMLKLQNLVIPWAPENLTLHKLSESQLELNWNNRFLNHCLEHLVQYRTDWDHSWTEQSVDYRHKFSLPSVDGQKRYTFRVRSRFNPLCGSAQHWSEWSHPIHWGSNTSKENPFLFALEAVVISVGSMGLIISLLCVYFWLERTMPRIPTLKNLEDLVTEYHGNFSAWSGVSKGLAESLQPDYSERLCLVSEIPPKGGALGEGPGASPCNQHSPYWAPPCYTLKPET

Sequence of human IL-2Rβ/γ (human) (P14784 27-551, chain 1 of 2): as the sequence (P14784 27-551, chain 2 of 3, further chain) above
Sequence of human IL-2Rβ/γ (human) (P31785 23-369, chain 2 of 2, further chain): as the sequence (P31785 23-369, chain 3 of 3, further chain) above
Sequence of his-tagged mammalian expressed control human IL-2, compound 13 (P60568 other isoform, or with tags, fused parts or gaps limits assumed): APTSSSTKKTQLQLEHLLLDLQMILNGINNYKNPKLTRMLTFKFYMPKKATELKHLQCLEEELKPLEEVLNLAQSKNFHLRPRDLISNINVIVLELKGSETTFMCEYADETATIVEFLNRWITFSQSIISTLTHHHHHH

pSTAT5 EC50, Treg, cynomolgus monkey whole blood [1]: 0.09 ng/mL
pSTAT5 EC50, CD8, human blood (additional experiments) (human IL-2Rβ/γ (human)): 4.94 ng/mL
pSTAT5 EC50, CD8, human whole blood (human IL-2Rβ/γ (human)): 25.7 ng/mL
pSTAT5 EC50, NK, human blood (additional experiments) (human IL-2Rβ/γ (human)): 17.6 ng/mL
pSTAT5 EC50, NK, human whole blood (human IL-2Rβ/γ (human)): 6.01 ng/mL
pSTAT5 EC50, CD8, mouse blood (mouse IL-2Rβ/γ (mouse)): 24000 ng/mL
pSTAT5 EC50, NK, mouse blood (mouse IL-2Rβ/γ (mouse)): 9690 ng/mL
pSTAT5 EC50, Treg, human whole blood (human IL-2Rα/β/γ (human)): 0.09 ng/mL
Substance: his-tagged mammalian expressed control human IL-2, compound 13 (from UniProt P60568 21-153) (ligand)
